# According to FireProtDB (doi:10.1038/srep15545):
# B1: Divalent-cation tolerance protein CutA, P69488 (parent)
# chain: MLDEKSSNTASVVVLCTAPDEATAQDLAAKVLAEKLAACATLIPGATSLYYWEGKLEQEYEVQMILKTTVSHQQALLECLKSHHPYQTPELLVLPVTHGDTDYLSWLNASLR
# Variants of: B1
# Details: Escherichia coli (strain K12), pH 9, Thermal, DSC, Glycine 50mM, reversible: yes, whole UniProt chain shown
Variant,Tm (structure 1NAQ) [°C],"change of melting temperature, mutant - wild type (higher = more stable) (structure 1NAQ) [°C]",unfolding enthalpy (calorimetric) (structure 1NAQ) [kcal/mol],Tm (structure 4Y65) [°C],"change of melting temperature, mutant - wild type (higher = more stable) (structure 4Y65) [°C]",unfolding enthalpy (calorimetric) (structure 4Y65) [kcal/mol]
MLDEKSSNTASVVVLCKAPDEATAQDLAAKVLAEKLAACATLIPGATSLYYWEGKLEQEYEVQMILKTTVSHQQALLECLKSHHPYQTPELLVLPVTHGDTDYLSWLNASLR [T17K],107,21.6,314,–,–,–
MLDEKSSNTASVVVLCTAPDEATAQDLAAKVLAEKLAACATLIPGATSLYYWEGKLEQEYEVQMILKTTVSHQQALLECLKRHHPYQTPELLVLPVTHGDTDYLSWLNASLR [S82R],117,31.5,346,–,–,–
MLDEKSSNTASVVVLCTAPDEATAQDLAAKVLAEKLAACATLIPGATSLYYWEGKLEQEYEVQMILKTTVSHQQALLECLKKHHPYQTPELLVLPVTHGDTDYLSWLNASLR [S82K],117,31.3,353,–,–,–
MLDEKSSNTASVVVLCTAPDEATAQDLAAKVLAEKLAACATLIPGATKLYYWEGKLEQEYEVQMILKTTVSKQQALLECLKKHHPYKRPELLVLPVTHGDTDYLSWLNASLR [S48K H72K S82K Q87K T88R],137,51.2,416,–,–,–
MLDEKSSNTASVVVLCTAPDEATAQDLAAKVLAEKLAACATLIPGATSLYYWEGKLEQEYVVQMILKTTVSHQQALLECLKSHHPYQTPELLVLPVTHGDTDYLSWLNASLR [E61V],101,15.4,293,–,–,–
MLDEKSSNTAVVVVLCTAPDEATAQDLAAKVLAEKLAACATLIPGATSLYYWEGKLEQEYVVQMILKTTVSHQQALLECLKSHHPYQTPELLVLPVTHGDTDYLSWLNASLR [S11V E61V],113,27.6,375,–,–,–
MLDEKSSNTASVVVLCTAPDEATAQDLAAKVLAEKLAACATLIPGATSLYYWEGKLEQEYEVQMILKTTVSHQQALLECLKSHHPYQTPELLVLPVTHGDTDYLSWLNARLR [S110R],117,31.7,391,–,–,–
MLDEKSSNTASVVVLCTAPDEATAQDLAAKVLAEKLAACATLIPGATKLYYWEGKLEQEYEVQMILKTTVSHQQALLECLKSHHPYQTPELLVLPVTHGDTDYLSWLNASLR [S48K],112,26.6,280,118,32.7,337
MLDEKSSNTASVVVLCTAPDEATAQDLAAKVLAEKLAACATLIPGATSLYYWEGKLEQEYEVQMILKTTVSKQQALLECLKSHHPYQTPELLVLPVTHGDTDYLSWLNASLR [H72K],118,32.8,364,–,–,–
MLDEKSSNTAVVVVLCTAPDEATAQDLAAKVLAEKLAACATLIPGATSLYYWEGKLEQEYEVQMILKTTVSHQQALLECLKSHHPYQTPELLVLPVTHGDTDYLSWLNASLR [S11V],103,17.1,311,–,–,–
MLDEKSSNTASVVVLCTAPDEATAQDLAAKVLAEKLAACATLIPGATSLYYWEGKLEQEYEVQMILKTTVSHQQALLECLKSHHPYQRPELLVLPVTHGDTDYLSWLNASLR [T88R],118,32,359,–,–,–
MLDEKSSNTASVVVLCTAPDEATAQDLAAKVLAEKLAACATLIPGATSLYYWEGKLEQEYEVQMILKTTVSHQQALLECLKSHHPYKTPELLVLPVTHGDTDYLSWLNASLR [Q87K],117,31.2,340,–,–,–
MLDEKSSNTASVVVLCTAPDEATAQDLAAKVLAEKLAACATLIPGATSLYYWEGKLEQEYEVQMILKTTVSHQQALLECLKSHHPYKRPELLVLPVTHGDTDYLSWLNASLR [Q87K T88R],122,36.8,378,–,–,–
MLDEKSSNTASVVVLCTAPDEATAQDLAAKVLAEKLAADATLIPGATSLYYWEGKLEQEYEVQMILKTTVSHQQALLECLKSHHPYQTPELLVLPVTHGDTDYLSWLNASLR [C39D],–,–,–,105,19.8,286
